Measured values published in patent US8173397B2, “Folded recombinant catalytic fragments of multidomain serine proteases, preparation and uses thereof” (TargetEx Kft., priority 2002, dated 2012).

Legend:
MASP-2 fragments = biological target: T1, MASP-2 fragments (Homo sapiens, UniProt O00187); assay: Inhibition of the enzymatic activities of the MASP-2 fragments by C1-inhibitor and alpha-2-macroglobulin; format: biochemical; details: for molar excess of inhibitor that abolishes all cleavages by the MASP-2 fragments: preincubation, C2, C3, C3(NH3), C4 substrates
T1 construct: T7-Tag fragment Ala-Ser-Met (N, cleaved yes); made in house
Method: (§1) Reactivity toward C1-inhibitor and alpha-2-macroglobulin—Inhibition of the enzymatic activities of the MASP fragments by C1-inhibitor and alpha-2-macroglobulin were tested as follows. MASP-1 and MASP-2 fragments at concentrations selected in the C2, C3, C3(NH3) and C4 cleavage tests were incubated at 37° C. with excess molar ratios of either C1-inhibitor, alpha-2-macroglobulin, or buffer in 20 mM HEPES, 140 mM NaCl, pH 7.4 for 40 minutes. Complement substrates C2, C3, C3(NH3) or C4 were added at typical concentrations of 0.5-1 μM and the samples were further incubated for 20 minutes. The cleaved and uncleaved chains were visualized by reducing SDS-PAGE and the degree of inhibition was compared.

MASP-1 CCP1-CCP2-SP = biological target: T2, MASP-1 CCP1-CCP2-SP (Homo sapiens, UniProt P48740); assay: Inhibition of the enzymatic activities of the MASP-1 fragment by C1-inhibitor and alpha-2-macroglobulin; format: biochemical
T2 construct: made in house
T2 sequence (P48740 298-699): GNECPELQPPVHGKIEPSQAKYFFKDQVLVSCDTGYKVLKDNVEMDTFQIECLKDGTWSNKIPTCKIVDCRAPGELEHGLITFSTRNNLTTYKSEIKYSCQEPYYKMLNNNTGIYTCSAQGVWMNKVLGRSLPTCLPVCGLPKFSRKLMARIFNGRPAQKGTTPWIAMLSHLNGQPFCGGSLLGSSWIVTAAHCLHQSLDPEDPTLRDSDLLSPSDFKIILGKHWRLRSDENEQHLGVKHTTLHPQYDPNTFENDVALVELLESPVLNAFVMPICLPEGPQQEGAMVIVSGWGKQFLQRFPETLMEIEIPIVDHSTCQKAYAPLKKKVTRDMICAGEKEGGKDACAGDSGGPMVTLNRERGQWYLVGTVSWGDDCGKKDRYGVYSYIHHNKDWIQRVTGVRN
Method: as §1

[1] = marginal molar excess over the enzyme

T1 sequence (O00187 445-686 limits assumed): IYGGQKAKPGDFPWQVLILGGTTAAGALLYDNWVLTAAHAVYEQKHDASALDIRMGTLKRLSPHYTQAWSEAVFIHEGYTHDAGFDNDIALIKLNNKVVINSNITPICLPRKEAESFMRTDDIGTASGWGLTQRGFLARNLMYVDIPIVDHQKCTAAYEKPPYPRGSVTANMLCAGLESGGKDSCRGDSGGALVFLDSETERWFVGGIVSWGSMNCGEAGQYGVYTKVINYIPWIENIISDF
T1 sequence (O00187 291-444 partner limits assumed): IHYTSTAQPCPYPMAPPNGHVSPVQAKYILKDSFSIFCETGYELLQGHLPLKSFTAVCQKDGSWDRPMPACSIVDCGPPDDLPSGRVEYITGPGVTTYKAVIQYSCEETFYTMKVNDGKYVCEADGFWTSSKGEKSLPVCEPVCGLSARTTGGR

C1-inhibitor: serpin C1-inhibitor purified from human serum
effect on proteolytic activity of MASP-2 on all substrates, in words (MASP-2 fragments; [1]): completely abolished | molar excess of inhibitor that abolishes all cleavages by the MASP-2 fragments (MASP-2 fragments): 1-3 fold | effect on proteolytic activity of MASP-1 on all substrates, in words (MASP-1 CCP1-CCP2-SP; [1]): completely abolished

alpha-2-macroglobulin: human alpha-2-macroglobulin isolated from plasma
molar excess over the MASP-2 fragments capable of significantly hindering C2 and C4 cleavage (MASP-2 fragments; C2 and C4 cleavage): 40 fold | molar excess over MASP-2 CCP1-CCP2-SP that blocks C3 cleavages (MASP-2 fragments; C3 cleavage): 1-3 fold | molar excess of inhibitor that abolishes all cleavages by the MASP-2 fragments (MASP-2 fragments): 40 fold | molar excess that completely blocks cleavage of C2 by the MASP-1 CCP1-CCP2-SP fragment (MASP-1 CCP1-CCP2-SP; C2 cleavage): 1-3 fold | molar excess over MASP-1 CCP1-CCP2-SP that blocks C3 cleavages (MASP-1 CCP1-CCP2-SP; C3 cleavage): 1-3 fold
